Source: patent US20250002563A1

Biological target: SARS-CoV-2 spike on pseudotyped virus particles (Wuhan-Hu-1 strain) (SARS-CoV-2) (UniProt P0DTC2)
Assay: cell-based or functional assay

Substance | IC50, pseudovirus luciferase assay
homotrimeric Nb20 | 3 pM
homotrimeric Nb21 | 1.3 pM
